{"source": "paper PMC12095048", "target": "USP7 (UniProt Q93009)", "test": "co-IP of Flag-HIF-1α, USP7 blot", "details": "reference: wild type Flag-HIF-1α; sites T645"}
{"substance": "HIF-1α (from UniProt Q16665) Flag-HIF-1α T645A", "values": [{"measurement": "binding against the reference", "value": "weaker"}]}
